Test [1] has as its target T1, Guinea pig NOTUM (guinea pig, UniProt Q6P988 21-496 (human entry)).
T1 construct: Expressed by transient transfection
T1 chain: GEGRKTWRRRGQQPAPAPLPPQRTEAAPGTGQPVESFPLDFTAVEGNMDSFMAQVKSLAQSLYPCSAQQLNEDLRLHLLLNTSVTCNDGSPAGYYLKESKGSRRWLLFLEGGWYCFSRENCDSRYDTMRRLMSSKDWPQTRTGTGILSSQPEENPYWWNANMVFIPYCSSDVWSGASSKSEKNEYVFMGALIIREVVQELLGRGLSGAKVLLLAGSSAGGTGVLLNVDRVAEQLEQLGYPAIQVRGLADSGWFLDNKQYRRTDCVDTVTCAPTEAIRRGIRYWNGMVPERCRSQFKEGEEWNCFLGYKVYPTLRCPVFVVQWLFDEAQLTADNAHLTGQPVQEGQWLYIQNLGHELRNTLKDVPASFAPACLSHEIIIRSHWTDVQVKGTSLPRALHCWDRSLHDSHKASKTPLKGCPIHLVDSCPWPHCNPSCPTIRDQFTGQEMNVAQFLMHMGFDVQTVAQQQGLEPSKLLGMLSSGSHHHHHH
The test is described as follows: ELISA. (In an ELISA, binding on a coated surface is turned into a signal by an enzyme label.)

Test [2] addresses T2, Human NOTUM R144A/R145A (human, UniProt Q6P988 20-496).
T2 construct: Alanine mutant, expressed and secreted after transient transfection
T2 sequence: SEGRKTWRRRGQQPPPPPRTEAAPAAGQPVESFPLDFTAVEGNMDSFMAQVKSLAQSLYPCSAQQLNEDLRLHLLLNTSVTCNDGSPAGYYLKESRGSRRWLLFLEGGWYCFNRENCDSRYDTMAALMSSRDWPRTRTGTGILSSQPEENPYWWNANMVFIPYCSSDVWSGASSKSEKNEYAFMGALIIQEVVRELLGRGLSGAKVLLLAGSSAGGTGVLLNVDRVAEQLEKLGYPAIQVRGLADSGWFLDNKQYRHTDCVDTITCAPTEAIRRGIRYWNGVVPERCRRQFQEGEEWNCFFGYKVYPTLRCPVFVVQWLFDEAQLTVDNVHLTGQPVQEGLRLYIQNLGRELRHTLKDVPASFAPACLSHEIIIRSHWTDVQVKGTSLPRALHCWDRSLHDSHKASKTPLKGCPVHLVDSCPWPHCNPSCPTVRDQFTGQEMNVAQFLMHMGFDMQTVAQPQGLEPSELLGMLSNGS
In words: ELISA.

Test [3] deals with T3, H(Q47).
T3 construct: Drawn on the sheet as a signal peptide (SP) followed by human NOTUM starting at Q47; CD33 signal peptide'; also called Human NOTUM (delta 1-46) with CD33 signal peptide
T3 single chain: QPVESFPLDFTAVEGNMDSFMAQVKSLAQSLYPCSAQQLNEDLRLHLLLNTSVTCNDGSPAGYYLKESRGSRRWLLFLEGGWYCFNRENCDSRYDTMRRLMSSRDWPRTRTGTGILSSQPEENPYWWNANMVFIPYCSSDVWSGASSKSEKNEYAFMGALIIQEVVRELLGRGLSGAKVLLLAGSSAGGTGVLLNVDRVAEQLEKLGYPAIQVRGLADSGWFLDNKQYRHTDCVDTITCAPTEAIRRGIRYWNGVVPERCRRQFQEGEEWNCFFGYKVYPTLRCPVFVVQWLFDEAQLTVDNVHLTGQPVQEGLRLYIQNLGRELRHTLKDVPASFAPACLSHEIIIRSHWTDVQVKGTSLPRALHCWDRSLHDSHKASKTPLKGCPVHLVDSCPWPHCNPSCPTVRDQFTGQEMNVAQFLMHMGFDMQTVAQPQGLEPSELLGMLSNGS
The test is described as follows: ELISA on conditioned medium of HEK293F transfected with the NOTUM construct (Example 6.7). The source says: (§1) The sequences of those proteins are shown in Section 7 (Table of Sequences). The conditioned media were used in ELISA format to determine antibody specificity. […] Within this region, mouse and human NOTUM differ at five positions (R115K, D141S. R150K, R154H, and Y171H, based on the human sequence numbering). Human NOTUM point mutants were generated by transient transfection of constructs expressing human NOTUM with the mouse amino acid at each of these five positions and the point mutants were all shown to be functional in the OPTS assay.

Test [4] addresses T4, H-M-H.
T4 construct: Drawn on the sheet as human up to the M177 line, a mouse middle segment, then a human C-terminal part; Conditioned medium from transfected HEK293F; also called Human-mouse-human chimeric NOTUM
T4 single chain: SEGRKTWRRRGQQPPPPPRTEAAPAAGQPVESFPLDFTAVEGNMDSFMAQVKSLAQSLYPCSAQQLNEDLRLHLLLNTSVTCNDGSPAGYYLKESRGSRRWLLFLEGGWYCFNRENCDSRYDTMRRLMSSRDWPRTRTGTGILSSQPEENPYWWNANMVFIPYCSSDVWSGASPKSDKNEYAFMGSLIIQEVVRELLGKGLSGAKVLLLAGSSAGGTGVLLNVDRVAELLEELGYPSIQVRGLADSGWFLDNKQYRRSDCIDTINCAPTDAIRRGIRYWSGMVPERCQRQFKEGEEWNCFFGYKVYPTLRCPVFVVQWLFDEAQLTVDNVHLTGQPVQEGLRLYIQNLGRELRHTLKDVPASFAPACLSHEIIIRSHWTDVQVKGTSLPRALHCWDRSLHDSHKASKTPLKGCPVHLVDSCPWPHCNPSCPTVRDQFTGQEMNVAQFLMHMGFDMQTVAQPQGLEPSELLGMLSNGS
The test is described as above.
Text: as §1

Test [5] addresses T5, H-M.
T5 construct: Drawn on the sheet as human N-terminal part and mouse C-terminal part; Produced by transient transfection of HEK293F and used as conditioned medium; also called Human-mouse chimeric NOTUM
T5 single chain: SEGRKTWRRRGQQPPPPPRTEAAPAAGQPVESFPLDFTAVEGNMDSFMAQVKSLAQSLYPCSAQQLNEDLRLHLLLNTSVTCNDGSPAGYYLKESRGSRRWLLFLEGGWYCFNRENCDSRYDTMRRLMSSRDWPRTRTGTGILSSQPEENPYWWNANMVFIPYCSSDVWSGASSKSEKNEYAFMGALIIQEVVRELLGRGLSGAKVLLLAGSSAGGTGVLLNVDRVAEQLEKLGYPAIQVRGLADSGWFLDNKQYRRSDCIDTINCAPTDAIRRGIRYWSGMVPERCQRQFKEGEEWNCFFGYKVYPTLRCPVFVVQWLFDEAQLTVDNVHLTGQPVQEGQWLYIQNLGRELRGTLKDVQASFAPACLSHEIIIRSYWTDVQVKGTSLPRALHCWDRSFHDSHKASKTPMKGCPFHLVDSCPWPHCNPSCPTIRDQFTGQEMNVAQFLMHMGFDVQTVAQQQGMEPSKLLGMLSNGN
Described as above.
Text: as §1

B1: MAb 1.802 (antibody, V domains shown)
VH: EVQLVESGGGLVKPGGSLKLSCAASGFTFSDYGMHWFRQAPEKGLEWVAYISSGSRTVYYADTVKGRFTISRDNAKNTLSLQMTSLRSEDTAMYYCARKHYNGGYFDVWGTGTTVTVSS
VL: DIVLTQSPASLAVSLGQRATISCRASKIVSTSGYSYMHWYQQKPGQPPKLLIYLASNLESGVPARFSGSGSGTDFTLNIHPVEEEDAATYYCQHSRELPPTFGSGTKLEIKR
notes: Mouse monoclonal antibody from Campaign 1 (raised against human NOTUM), IgG1
B1: the binding result in test [1] was “binds”; in test [2], “no binding”; in test [3], “binds”; in test [4] it was “binds”; in test [5], “binds”.

B2: MAb 1.846 (antibody, IgG2b, V domains shown)
VH: EVQLVESGGDLVKPGGSLKLSCAASGFTFSDYGMHWLRQAPEKGLEWVAYISSGSTTLSYANTMKGRFTISRDNAKKTLSLQMTSLRSEDTAIYYCARKNYNGGYFDVWGTGTTVTVSS
VL: DIVLTQSPASLVVSLGQRATISCRASKSVSESGYSYMHWYQQKPGQPPKLLIYLASNLESGVPARFSGSGSGTDFTLNIHPVEEGDATTYYCQHSRVLPPTFGSGTKLEIKR
notes: Mouse monoclonal antibody from Campaign 1, IgG2b
With B2, the binding result was “binds” in test [1]; “no binding” in test [2]; “binds” in test [3]; “binds” in test [4]; “binds” in test [5].

B3: MAb 1.815 (antibody, IgG1, V domains shown)
VH: DVQLLESGGGLVQPGGSRKLSCAASGFTFSDFGMHWVRQAPEKGLEWVAYSSSGGTTVYYADTVKGRLTLSRDNSKNTLFLEMTSLRSEDTAMYYCARASYDGGYFDCWGQGTSLTVSS
VL: DIVLTQSPASLAVSLGQRATISCRASKSVSTSGYSYIHWYQQKPGQPPKLLIYLASDLESGVPARFSGSGSGAAFTLNIHPVEEEDAATYYCHHSRELPFTFGSGTKLEIKR
notes: Mouse monoclonal antibody from Campaign 1, IgG1
As for B3, the binding result is “binds” in test [1]; “no binding” in test [2]; “binds” in test [3]; “binds” in test [4]; “binds” in test [5].

The record behind these values is patent US20130302346A1 (LEXICON PHARMACEUTICALS, published 2013).
